Reference: patent publication US20220106400A1 (Bristol-Myers Squibb, published 2022)

T1: hCD32a-H131 (FcgRIIa-H131) (human, UniProt P12318 36-218)
T1 construct: not shown: C-terminal his-tag
T1 sequence (looked up): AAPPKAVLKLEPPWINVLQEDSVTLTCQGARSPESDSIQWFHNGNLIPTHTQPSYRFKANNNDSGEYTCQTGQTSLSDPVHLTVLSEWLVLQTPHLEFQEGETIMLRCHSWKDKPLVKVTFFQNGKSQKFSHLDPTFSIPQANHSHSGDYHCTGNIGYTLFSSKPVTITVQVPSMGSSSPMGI

T2: hCD32a-R131 (FcgRIIa-R131) (human, UniProt P12318 36-218)
T2 construct: not shown: C-terminal his-tag
T2 sequence (looked up): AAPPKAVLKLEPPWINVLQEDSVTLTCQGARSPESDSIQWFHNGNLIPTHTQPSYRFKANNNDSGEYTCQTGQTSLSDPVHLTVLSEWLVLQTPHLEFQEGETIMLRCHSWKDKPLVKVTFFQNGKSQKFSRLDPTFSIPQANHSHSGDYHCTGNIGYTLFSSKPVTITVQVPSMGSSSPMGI

T3: hCD32b (FcgRIIb) (human, UniProt P31994 46-217)
T3 construct: not shown: C-terminal his-tag
T3 sequence (looked up): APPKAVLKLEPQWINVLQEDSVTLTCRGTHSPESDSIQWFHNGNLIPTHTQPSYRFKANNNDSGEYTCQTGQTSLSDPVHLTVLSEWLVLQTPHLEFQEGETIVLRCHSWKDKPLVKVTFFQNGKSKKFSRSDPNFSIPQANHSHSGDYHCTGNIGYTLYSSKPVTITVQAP

B1: 3h56-269-IgG1.1f (Fc fusion)
chain: EVQLLESGGGLVQPGGSLRLSCAASGFTFRDYEMWWVRQAPGKGLERVSAINPQGTRTYYADSVKGRFTISRDNSKNTLYLQMNSLRAEDTAVYYCAKLPFRFSDRGQGTLVTVSSASTEPKSCDKTHTCPPCPAPEAEGAPSVFLFPPKPKDTLMISRTPEVTCVVVDVSHEDPEVKFNWYVDGVEVHNAKTKPREEQYNSTYRVVSVLTVLHQDWLNGKEYKCKVSNKALPSSIEKTISKAKGQPREPQVYTLPPSREEMTKNQVSLTCLVKGFYPSDIAVEWESNGQPENNYKTTPPVLDSDGSFFLYSKLTVDKSRWQQGNVFSCSVMHEALHNHYTQKSLSLSPGK
notes: anti-CD40 dAb-Fc
B2: 3h56-269-IgG1.3f (Fc fusion)
chain: EVQLLESGGGLVQPGGSLRLSCAASGFTFRDYEMWWVRQAPGKGLERVSAINPQGTRTYYADSVKGRFTISRDNSKNTLYLQMNSLRAEDTAVYYCAKLPFRFSDRGQGTLVTVSSASTEPKSCDKTHTCPPCPAPEAEGAPSVFLFPPKPKDTLMISRTPEVTCVVVDVSHEDPEVKFNWYVDGVEVHNAKTKPREEQYNSTYRVVSVLTVLHQDWLNGKEYKCKVSNKALPAPIEKTISKAKGQPREPQVYTLPPSREEMTKNQVSLTCLVKGFYPSDIAVEWESNGQPENNYKTTPPVLDSDGSFFLYSKLTVDKSRWQQGNVFSCSVMHEALHNHYTQKSLSLSPGK
notes: dAb-Fc fusion protein
B3: 3h56-269-IgG1.1f (Fc fusion)
chain: EVQLLESGGGLVQPGGSLRLSCAASGFTFRDYEMWWVRQAPGKGLERVSAINPQGTRTYYADSVKGRFTISRDNSKNTLYLQMNSLRAEDTAVYYCAKLPFRFSDRGQGTLVTVSSASTEPKSCDKTHTCPPCPAPEAEGAPSVFLFPPKPKDTLMISRTPEVTCVVVDVSHEDPEVKFNWYVDGVEVHNAKTKPREEQYNSTYRVVSVLTVLHQDWLNGKEYKCKVSNKALPSSIEKTISKAKGQPREPQVYTLPPSREEMTKNQVSLTCLVKGFYPSDIAVEWESNGQPENNYKTTPPVLDSDGSFFLYSKLTVDKSRWQQGNVFSCSVMHEALHNHYTQKSLSLSPGK
notes: dAb-Fc fusion protein

Assays:
[1] = biological target: T1, hCD32a-H131 (FcgRIIa-H131); experiment: SPR, FcgR analyte titration on protein A captured dAb-Fc
Protocol: (§1) A second SPR assay for testing the interaction between antibodies or dAb-Fc proteins with FcgR proteins is a protein A capture method. These experiments are also performed on either a Biacore™ T100 or Biacore™ T200 instrument (GE Healthcare) at 25° C. For these studies, protein A is immobilized on flow cells 1-4 of a CM5 sensor chip using standard ethyl (dimethylaminopropyl) carbodiimide (EDC)/N-hydroxysuccinimide (NHS) chemistry, with ethanolamine blocking, in a running buffer of 10 mM HEPES pH 7.4, 150 mM NaCl, 3 mM EDTA, 0.05% surfactant p20, to a density of ˜3000 RU.

[2] = biological target: T2, hCD32a-R131 (FcgRIIa-R131); experiment: as above
Protocol: as §1

hCD32b (FcgRIIb) = biological target: T3, hCD32b (FcgRIIb); experiment: as above
Protocol: as §1

[3] = biological target: T4, hCD16a-V158 (FcgRIIIa-V158) (human, UniProt P08637 17-208); experiment: as above
T4 construct: not shown: C-terminal his-tag
Protocol: as §1

[4] = biological target: T5, hCD16b-NA2 (FcgRIIIb-NA2) (human, UniProt O75015 17-200, limits assumed); experiment: as above
T5 construct: not shown: C-terminal his-tag
Protocol: as §1

hCD40-Fc = biological target: T6, hCD40-Fc (human, UniProt P25942 21-193); experiment: SPR, immobilized hCD40-Fc, dAb-Fc analyte (avidity)
T6 construct: not shown: Fc part of hCD40-Fc, not described
T6 sequence (P25942 21-193): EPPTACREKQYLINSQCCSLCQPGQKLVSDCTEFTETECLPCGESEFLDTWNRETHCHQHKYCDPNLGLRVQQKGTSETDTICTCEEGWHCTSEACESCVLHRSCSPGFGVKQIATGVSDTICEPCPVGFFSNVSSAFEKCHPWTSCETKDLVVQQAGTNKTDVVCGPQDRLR

T5 sequence (O75015 17-200 N65S limits assumed): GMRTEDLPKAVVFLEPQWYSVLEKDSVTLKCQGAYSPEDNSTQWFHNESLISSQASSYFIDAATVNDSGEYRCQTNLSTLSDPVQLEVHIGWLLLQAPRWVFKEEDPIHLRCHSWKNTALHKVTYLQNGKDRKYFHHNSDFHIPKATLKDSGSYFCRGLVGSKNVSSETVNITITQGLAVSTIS
T4 sequence (P08637 17-208 F176V limits assumed): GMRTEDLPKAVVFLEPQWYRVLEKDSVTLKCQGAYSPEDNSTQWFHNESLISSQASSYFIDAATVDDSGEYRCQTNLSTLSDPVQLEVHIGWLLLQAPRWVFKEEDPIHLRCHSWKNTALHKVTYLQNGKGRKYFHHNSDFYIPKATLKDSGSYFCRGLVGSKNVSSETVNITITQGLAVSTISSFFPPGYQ

Row | Binder | Kd [1] | Kd [2] | Kd (hCD32b (FcgRIIb)) | Kd [3] | Kd [4] | KDapparent (hCD40-Fc)
1 | B1 | > 5 µM | > 5 µM | > 5 µM | > 5 µM | > 5 µM | 
2 | B2 |  |  |  |  |  | < 1 nM
3 | B3 |  |  |  |  |  | < 1 nM
